Results as given in article PMC9388135 (Proceedings of the National Academy of Sciences of the …, 2022).
Positions count from the first letter of the chain named. Numbers in names are those of the source.

B1: KicGAS L17R (natural protein, UniProt Q2HR80 1-131, looked up)
chain: MAAPRGRPKKDLTMEDRTAKISQLTVENRELRKALGSTADPRDRPLTATEKEAQLTATVGALSAAAAKKIEARVRTIFSKVVTQKQVDDALKGLSLRIDVCMSDGGTAKPPPGANNRRRRGASTTRAGVDD
B2: KicGAS L35A (natural protein, UniProt Q2HR80 1-131, looked up)
chain: B1 chain with R17L, L35A
B3: KicGAS L35R (natural protein, UniProt Q2HR80 1-131, looked up)
chain: B1 chain with R17L, L35R
B4: KicGAS P41S/P45I (natural protein, UniProt Q2HR80 1-131, looked up)
chain: B1 chain with R17L, P41S, P45I
B5: KicGAS^9-104 (domain or fragment, UniProt Q2HR80 9-104, looked up)
chain: KKDLTMEDLTAKISQLTVENRELRKALGSTADPRDRPLTATEKEAQLTATVGALSAAAAKKIEARVRTIFSKVVTQKQVDDALKGLSLRIDVCMSD

Target: the molecule itself
Test: SEC

Protein | stoichiometry N | binding result
B1 | 2 | 
B2 |  | binds
B3 |  | binds
B4 |  | binds
B5 |  | binds
